Paper PMC6212794, “Crystal structure of the modification-dependent SRA-HNH endonuclease TagI”
Blank lines part the entries; values can stand above or below the molecule they belong to.

How the values were obtained:
[1] = molecular target: TagI, SRA-HNH modification-dependent restriction endonuclease from Thermocrispum agreste (Thermocrispum agreste); assay: SEC; analytical gel filtration of TagI alone; apparent molecular mass compared with the theoretical mass of the dimer
[2] = molecular target: TagI, SRA-HNH modification-dependent restriction endonuclease from Thermocrispum agreste (Thermocrispum agreste); assay: SEC-MALS; multi-angle light scattering of TagI alone
TagI [3] = molecular target: T1, TagI (Thermocrispum agreste, UniProt A0A3F2YM30 1-311); assay: analytical gel filtration (SEC co-migration); 1, 2 or 4 duplexes per TagI dimer; migrated independently; analytical gel filtration; buffer, salt, pH and temperature not given in the material; details: protein: recombinant; chain copies: 2; blunt
T1 sequence: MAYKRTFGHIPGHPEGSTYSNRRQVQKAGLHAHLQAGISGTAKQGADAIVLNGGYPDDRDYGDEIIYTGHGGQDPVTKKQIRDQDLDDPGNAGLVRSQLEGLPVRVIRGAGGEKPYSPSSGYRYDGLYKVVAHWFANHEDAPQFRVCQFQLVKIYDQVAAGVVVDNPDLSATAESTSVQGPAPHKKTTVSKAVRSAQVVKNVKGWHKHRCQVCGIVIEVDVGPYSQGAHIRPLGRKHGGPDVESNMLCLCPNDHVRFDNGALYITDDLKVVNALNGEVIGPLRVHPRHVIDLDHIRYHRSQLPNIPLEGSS

TagI [4] = molecular target: T1, TagI; assay: analytical gel filtration (SEC co-migration); 1, 2 or 4 duplexes per TagI dimer; sharp complex peak, 93 kDa, about 1 duplex per dimer; analytical gel filtration; buffer, salt, pH and temperature not given in the material; details: protein: recombinant; chain copies: 2; blunt

stoichiometry N [1]: 2 | stoichiometry N [2]: 2
Molecule: TagI, SRA-HNH modification-dependent restriction endonuclease from Thermocrispum agreste (enzyme)

B1: 17mer unmodified duplex (dsDNA)
DNA 1: CCTAGAGCAGCAATCCC
DNA 2: GGGATTGCTGCTCTAGG
binding result (TagI [3]): no binding

B2: 17mer fully methylated duplex (dsDNA)
DNA 1: CCTAGAGCAGCAATCCC
DNA 2: GGGATTGCTGCTCTAGG
modifications: 5mC at position 8 of strand 1 and position 8 of strand 2
binding result (TagI [4]): binds
